For two variants, screen value and response (% of total protein) results are on record in PMC12543280.

First the molecules themselves.
B1: C. elegans APE-1 (sole ASPP homolog), endogenous, tagged with GFP and 3xflag [C. elegans] / C. elegans GSP-2 (PP1 homolog), endogenously HaloTagged [modified: JF646 dye on the HaloTag (single-molecule assay); JFX646 dye on the … (parent)
chain 1: MVTTSSGGGIGYPANNGVTQVSLIHSSDSVRTVSTAPIYRPTSSMASTMAHKSSTAPFISANQRMSKPPVRVVAQPPPPHPQALSQQYHQQNPMMMYSAPNTRPHVIPTMQVQPTMAAQIKRNNPVNAQFQNPSEMIADYGVKPQSVEMVQRVRAVRRQVADEETELRRLRELEHETAQLQNKNYGRERELNVQGSMLKEAQLELRNASMRAQSLNKHLEEMYRRRQTAAAAALVEQRKMQQHQILLARAANQVSTQEVIRPRASVEPFQVNNTQQQQPSPQMMKSEEFSEKRDLNGQTGSYDAIDGSGDHQKIPTEPSYLAPCKENQQKYSELSKMASTDPHSNHSSPSTSSQKAPTLITFSPPSFEQKINSSTMTRDSPFVERPTSFGDSLDESRLRSGKTDLVSLRSDSLKATKRRSWAASEGTSMSEAEMIHRLLDEQRRGRSHFIPQLPTSQEEPSAITSETYAEEVVNSESKQVATSSDSTNNLELPTEQMVLGSDTTTEEDASSCSTRSDDGQNLEMEVAIERRTVKGILRRPNEKMNKGRIEFDPLALLLDAALEGELDLVRSSASKLTDVSQANDEGITALHNAICAGHYEIVRFLIENDADVNAQDSDGWTPLHCAASCNNLPMVRQLVEGGGCVLASTLSDMETPVEKCEEDEDGYDGCLKYLSAAHNSTGSINTGKVYAAYGYEAAFEDELSFDAGDELTVIEKDKVDKNWWTCEKNNGEKGQVPRTYLALYPSLKYRKKLNFVMFDLPLESNNNVE
chain 2: MDVEKLNLDNIISRLLEVRGSKPGKNVQLTESEIKGLCQKSREIFLSQPILLELEAPLKICGDVHGQYYDLLRLFEYGGFPPESNYLFLGDYVDRGKQSLETICLLLAYKIKYPENFFLLRGNHECASINRIYGFYDECKRRYNIKLWKTFTDCFNCLPVAAIIDEKIFCCHGGLSPDLQSMEQIRRIMRPTDVPDQGLLCDLLWSDPDKDVTGWGENDRGVSFTFGPEVVAKFLHKHDLDLICRAHQVVEDGYEFFAKRQLVTLFSAPNYCGEFDNAGSMMTVDETLMCSFQILKPADKKKYPYGAGGVGSNRPVTPPRNAPAAQPKKGAKK

Variants of B1 are the subject of assay [1]. Kind of assay: single-molecule photobleaching analysis by TIRF microscopy. The following applies: with C. elegans GSP-2 (PP1 homolog).
In assay [2] the parent is B1. Briefly: MudPIT analysis of 3xflag immunoprecipitations from whole-worm lysates. Conditions: with C. elegans GSP-2 (PP1 homolog) in whole-worm lysates of the MudPIT experiment [C. elegans (endogenous in whole worms)]; for response (% of total protein): parent: 10.8; for screen value: parent: 20.

For the variant chain 1 H591Y, the screen value in assay [1] (p=0.531 vs APE-1, read off a plot) is 37%; in assay [2], 7. Moreover, in assay [2] (bait recovered in same sample: 0.12 % of total protein (wild-type bait 0.54)), the response (% of total protein) was found to be 0.87.

As to chain 1 N583K, the screen value in assay [1] (p = 0.008 vs APE-1, read off a plot) is 34%; in assay [2], 4. Besides, the response (% of total protein) in assay [2] (bait recovered in same sample: 0.22 % of total protein (wild-type bait 0.54)) was 0.87.
